# Target: GTP
# Assay: GTP pull-down, quantified blot
# Conditions: + Mg2+; co-expressed with HA-RagC S75N; read off a plot
row,Substance,response (relative to RagBlong Q127L (set to 1))
1,RagB^long (from UniProt Q5VZM2) Q127L; D96A,0.9
2,RagB^long (from UniProt Q5VZM2) Q127L,1
3,RagB^long (from UniProt Q5VZM2) Q127L; L94A,1.8

# Reference: paper PMC9481464
